In patent US20220054419A1 one finds Neutralization IC50, lentivirus pseudotype neutralization assay data, which are given here for 3 substances.

This experiment addresses hemagglutinin (HA) of A/California/4/09 (H1N1) on pseudotyped lentivirus (Influenza virus A/California/04/2009 (H1N1)) (UniProt P26140). Kind of experiment: cell-based or functional assay.

“monoclonal antibody CH65 (anti-receptor binding site of HA)” gave a Neutralization IC50, lentivirus pseudotype neutralization assay of 6.25 µg/mL.

“monoclonal antibody FI6v3 (anti-HA stem region)” came in with a Neutralization IC50, lentivirus pseudotype neutralization assay of 0.13 µg/mL.

monoclonal antibody 441D6 had a Neutralization IC50, lentivirus pseudotype neutralization assay of 0.16 µg/mL.
